# Source: US20120090043A1, “TARGETS FOR RETROVIRUS ASSOCIATED DISEASES” (priority 2009, published 2012)
# Test system: HTLV-1 LTR promoter transactivation by HTLV-1 Tax
# Assay: Transactivation assay, HTLV-1 LTR luciferase reporter with HTLV-1 Tax
# Format: cell-based
# Conditions: HEK293 cells co-transfected with pHTLV1LTR-Luc, HTLV-1 Tax and the human ORF; relative luciferase activity 24 h post-transfection; positive if >=2 or <=0.5 and p<0.05
# Description: Twenty-four hours post-transfection, cells were washed three times with PBS, lysed and luciferase activities determined from two independent transfection experiments in triplicate. We computed a paired t-test to assess the difference of the means between samples with and without the human interactor. For a trial to be considered positive, the relative luciferase activities has to be >=2 or <=0.5, and the p-value of the t-test<0.05.
# Expression vectors encoding human ORFs and HIV-1 Tat or HTLV-1 Tax proteins were tested in a transactivation reporter assay against reporter plasmids harboring HIV-1 or HTLV-1 viral promoter sequences cloned upstream of the luciferase reporter gene. […] Wherever not expressly specified, constructs used herein were generally made by sub-cloning entry clones from the ORFeome V3.1 into suitable destination vectors.
row,Molecule,HTLV_LTR transactiv.
1,"DHRS10: human host interactor protein, Gene ID 51171, expressed from transfected ORF vector (protein) MATGTRYAGKVVVVTGGGRGIGAGIVRAFVNSGARVVICDKDESGGRALEQELPGAVFILCDVTQEDDVKTLVSETIRRFGRLDCVVNNAGHHPPPQRPEETSAQGFRQLLELNLLGTYTLTKLALPYLRKSQGNVINISSLVGAIGQAQAVPYVATKGAVTAMTKALALDESPYGVRVNCISPGNIWTPLWEELAALMPDPRATIREGMLAQPLGRMGQPAEVGAAAVFLASEANFCTGIELLVTGGAELGYGCKASRSTPVDAPDIPS",0.41 fold change
2,"FLJ22471: human host interactor protein, Gene ID 80212, expressed from transfected ORF vector (protein) MTSPHFSSYDEGPLDVSMAATNLENQLHSAQKNLLFLQREHASTLKGLHSEIRRLQQHCTDLTYELTVKSSEQTGDGTSKSSELKKRCEELEAQLKVKENENAELLKELEQKNAMITVLENTIKEREKKYLEELKAKSHKLTLLSSELEQRASTIAYLTSQLHAAKKKLMSSSGTSDASPSGSPVLASYKPAPPKDKLPETPRRRMKKSLSAPLHPEFEEVYRFGAESRKLLLREPVDAMPDPTPFLLARESAEVHLIKERPLVIPPIASDRSGEQHSPAREKPHKAHVGVAHRIHHATPPQAQPEVKTLAVDQVNGGKVVRKHSGTDRTV",2.25 fold change
3,"C1orf94: human host interactor protein, Gene ID 84970, expressed from transfected ORF vector (protein) MRGGGGCVLALGGQRGFQKERRRMASGNGLPSSSALVAKGPCALGPFPRYIWIHQDTPQDSLDKTCHEIWKRVQGLPEASQPWTSMEQLSVPVVGTLRGNELSFQEEALELSSGKDEISLLVEQEFLSLTKEHSILVEESSGELEVPGSSPEGTRELAPCILAPPLVAGSNERPRASIIVGDKLLKQKVAMPVISSRQDCDSATSTVTDILCAAEVKSSKGTEDRGRILGDSNLQVSKLLSQFPLKSTETSKVPDNKNVLDKTRVTKDFLQDNLFSGPGPKEPTGLSPFLLLPPRPPPARPDKLPELPAQKRQLPVFAKICSKPKADPAVERHHLMEWSPGTKEPKKGQGSLFLSQWPQSQKDACGEEGCCDAVGTASLTLPPKKPTCPAEKNLLYEFLGATKNPSGQPRLRNKVEVDGPELKFNAPVTVADKNNPKYTGNVFTPHFPTAMTSATLNQPLWLNLNYPPPPVFTNHSTFLQYQGLYPQQAARMPYQQALHPQLGCYSQQVMPYNPQQMGQQIFRSSYTPLLSYIPFVQPNYPYPQRTPPKMSANPRDPPLMAGDGPQYLFPQGYGFGSTSGGPLMHSPYFSSSGNGINF",0.41 fold change
4,"DIPA: human host interactor protein, Gene ID 11007, expressed from transfected ORF vector (protein) MEAEAGGLEELTDEEMAALGKEELVRRLRREEAARLAALVQRGRLMQEVNRQLQGHLGEIRELKQLNRRLQAENRELRDLCCFLDSERQRGRRAARQWQLFGTQASRAVREDLGGCWQKLAELEGRQEELLRENLALKELCLALGEEWGPRGGPSGAGGSGAGPAPELALPPCGPRDLGDGSSSTGSVGSPDQLPLACSPDD",0.28 fold change
5,"FATE1: human host interactor protein, Gene ID 89885, expressed from transfected ORF vector (protein) MAGGPPNTKAEMEMSLAEELNHGRQGENQEHLVIAEMMELGSRSRGASQKKQKLEQKAAGSASAKRVWNMTATRPKKMGSQLPKPRMLRESGHGDAHLQEYAGNFQGIRFHYDRNPGTDAVAQTSLEEFNVLEMEVMRRQLYAVNRRLRALEEQGATWRHRETLIIAVLVSASIANLWLWMNQ",0.49 fold change
6,"FLJ10726: human host interactor protein, Gene ID 55216, expressed from transfected ORF vector (protein) MSRIPLGKVLLRNVIRHTDAHNKIQEESDMWKIRELEKQMEDAYRGTKRKMLPSSSSRMRSDGFDEESQRYYWRPKNEISGTLEDDFLKAKSWNKKFYDYEANMPDRWGHSGYKELYPEEFETDSDQQDITNGKKTSPQVKSSTHESRKHKKSKKSHKKKQKKRSHKKQKKSKKEATDITADSSSEFSEETGASGTRKGKQPHKRKKKSRKKSLKKPALFLEAESNTSHSDDSASSSSEESEERDTKKTKRKKREKKAHTSVANNEIQERTNKRTNWKVATDERSAESSEDD",0.19 fold change
7,"HSFY1: human host interactor protein, Gene ID 86614, expressed from transfected ORF vector (protein) MAHVSSETQDVSPKDELTASEASTRSPLCEHTFPGDSDLRSMIEEHAFQVLSQGSLLESPSYTVCVSEPDKDDDFLSLNFPRKLWKIVESDQFKSISWDENGTCIVINEELFKKEILETKAPYRIFQTDAIKSFVRQLNLYGFSKIQQNFQRSAFLATFLSEEKESSVLSKLKFYYNPNFKRGYPQLLVRVKRRIGVKNASPISTLFNEDFNKKHFRAGANMENHNSALAAEASEESLFSASKNLNMPLTRESSVRQIIANSSVPIRSGFPPPSPSTSVGPSEQIATDQHAILNQLTTIHMHSHSTYMQARGHIVNFITTTTSQYHIISPLQNGYFGLTVEPSAVPTRYPLVSVNEAPYRNMLPAGNPWLQMPTIADRSAAPHSRLALQPSPLDKYHPNYN",0.43 fold change
8,"DGCR6L: human host interactor protein, Gene ID 85359, expressed from transfected ORF vector (protein) MERYAAALEEVADGARQQERHYQLLSALQSLVKELPSSFQQRLSYTTLSDLALALLDGTVFEIVQGLLEIQHLTEKSLYNQRLRLQNEHRVLRQALRQKHQEAQQACRPHNLPVVQAAQQRELEAVEHRIREEQRAMDQKIILELDRKVADQQSTLEKAGVAGFYVTTNPQELMLQMNLLELIRKLQQRGCRAGNAALGLGGPWQSPAAQCDQKGSPVPP",0.24 fold change
9,"DAZAP2: human host interactor protein, Gene ID 9802, expressed from transfected ORF vector (protein) MNSKGQYPTQPTYPVQPPGNPVYPQTLHLPQAPPYTDAPPAYSELYRPSFVHPGAATVPTMSAAFPGASLYLPMAQSVAVGPLGSTIPMAYYPVGPIYPPGSTVLVEGGYDAGARFGAGATAGNIPPPPPGCPPNAAQLAVMQGANVLVTQRKGNFFMGGSDGGYTIW",3.31 fold change
10,"CCDC24: human host interactor protein, Gene ID 149473, expressed from transfected ORF vector (protein) MLRHSPSLWELVEEHVPLRERREVKRILGEAAVDLSLELRAEVAMLRALLQEARSSQAPSSRPISDPSSLLAPPPLLKDLLRQELRQLLQGLRHKAICEGRDQAQAWVQYSPRVLHFALEEPRCDLPEQEIFQMRGGGPSSGHRDLSIIKDQLNVSNIDQVARHLRGLLEEECHTLEREILILQRCLEEEYLRPCHPSEAALEPTLAELKEQKKAMEQELQASVGPSCVSPNHRQRPLGSSTQGLRPPLPLCGVAPLQCCLPAPPLEPYLRPRGQSATHRWGRQLQCSPREGPASTPMSSAAPQAPA",2.88 fold change
